Target: T1, CD3 on Jurkat cells (human, UniProt P07766 23-207)
T1 construct: whole, on cells; the CD3 complex has several chains; also called T cells (Jurkat); J6 cells
Assay: binding to J6 cells; method not described

T1 sequence (P07766 23-207): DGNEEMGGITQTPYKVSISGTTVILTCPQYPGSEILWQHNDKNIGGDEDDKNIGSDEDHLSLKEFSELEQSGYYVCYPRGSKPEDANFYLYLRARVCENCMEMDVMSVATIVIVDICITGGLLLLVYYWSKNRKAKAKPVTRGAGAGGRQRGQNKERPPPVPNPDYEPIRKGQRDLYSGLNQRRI

Kd: 140 nM
B1: BsF(ab')2 v1 (anti-p185HER2/anti-CD3 v1) (bispecific antibody)
chain 1: not shown
chain 2: not shown
chain 3: DIQMTQSPSSLSASVGDRVTITCRASQDIRNYLNWYQQKPGKAPKLLIYYTSRLESGVPSRFSGSGSGTDYTLTISSLQPEDFATYYCQQGNTLPWTFGQGTKVEIK
chain 4: EVQLVESGGGLVQPGGSLRLSCAASGYSFTGYTMNWVRQAPGKGLEWVALINPYKGVTTYADSVKGRFTISVDKSKNTAYLQMNSLRAEDTAVYYCARSGYYGDSDWYFDVWGQGTLVTVSS
modifications: hinge Cys thioether-linked through o-PDM to the other Fab' arm
